Assay results: US11505583B2, “Proteins for the treatment of epithelial barrier function disorders” (Second Genome, Inc., priority 2018, dated 2022)
Changes are numbered by the printed parent chain. Names and notes keep the numbering of the source.

B1: SG-11 (SEQ ID NO:7): Recombinant SG-11 with N-terminal methionine, 233 amino acids, no N-terminal tag (protein)
chain: MLEGEESVVYVGKKGVIASLDVETLDQSYYDETELKSYVDAEVEDYTAEHGKNAVKVESLKVEDGVAKLKMKYKTPEDYTAFNGIELYQGKVVASLAAGYVYDGEFARVEEGKVVGAATKQDIYSEDDLKVAIIRANTDVKVDGEICYVSCQNVKLTGKDSVSIRDGYYLETGSVTASVDVTGQESVGTEQLSGTEQMEMTGEPVNADDTEQTEAAAGDGSFETDVYTFIVYK
B2: SG-11V5: SG-11 variant SEQ ID NO:19 comprising N53S, N83S, C147V, C151S with respect to SEQ ID NO:7 (protein)
chain: B1 chain with N53S, N83S, C147V, C151S

Test system: C57BL/6 mice given 2.5% DSS in drinking water
Assay: Therapeutic DSS model of inflammatory bowel disease, treatment after 7 days DSS (Example 5, Example 13B)
Assay type: in vivo, mouse
Conditions: Example 13B; for LBP in serum (ELISA): 50 nmole/kg i.p. b.i.d. for 4 days after 7 days DSS, FIG. 19B; for Colon length / Colon weight to length ratio: 50 nmole/kg, vs DSS+vehicle; for Colon length: FIG. 22B; for Colon weight to length ratio: p<0.01, FIG. 23B; for Body weight changes: 50 nmoles/kg, day 11, p<0.05, FIG. 20B
Experimental: In this example, experiments were performed to study the effects of SG-11 in the DSS mouse model when the SG-11 protein is administered to the mice after DSS treatment for 7 days. This differs from the treatment regimen of Example 4 above in which mice were administered SG-11 protein shortly before treatment with DSS.
Eight-week-old male C57BL/6 mice were housed 5 animals per cage and given food and water ad libitum for seven days. Following a 7-day acclimation period, the mice were provided with drinking water containing 2.5% DSS for 7 days. Fresh 2.5% DSS water was prepared every 2 days during the 7 day DSS administration. For this therapeutic DSS study, SG-11 used to treat the animals was fused at its N-terminus to a FLAG Tag (DYKDDDDK; SEQ ID NO:32).
On day 7 normal drinking water was restored and i.p. treatments of 50 nmole/kg of SG-11 (1.3 mg/kg) or Gly2-GLP2 (0.2 mg/kg) were initiated. Treatments were administered twice a day (b.i.d.), with a morning and evening dose (every 8 and 16 hours) for six days.
Body weight was measured daily during the morning treatment. The colon tissue was then harvested and length was measured in centimeters and the tissue was weighed. Fecal material was flushed from the colon and residual PBS removed by gently running the colon tissue through a pair of forceps. The colon tissue was then weighed and colon weight to length ratio in mg/mm was determined. Following weight measurements proximal and distal colon tissue was banked for RNA and protein analysis and the remaining tissues was fixed in 10% neutral buffered formalin for histopathology. Statistical analysis was performed by a one-way ANOVA compared to DSS+vehicle for serum 4KDa-FITC translocation, serum LBP concentrations, colon length, and colon weight to length ratio, while a two-way ANOVA was performed for analysis of body weight. In all analysis, a Fisher's LSD test for multiple comparisons was used. Graphs represent data pooled from two experiments, and are plotted as mean±SEM.
Histopathology analysis was performed on proximal and distal colon tissues from the therapeutic DSS model described above. Proximal (FIG. 13A) and distal (FIG. 13B) colon scores (range 0-4) are presented and as well as the total score for the colon which represents the sum of proximal and distal colon scores (Range 0-8) (FIG. 13C). LMA=Loss of mucosal architecture, Edema=Edema, INF=Inflammation, TMI=Transmural inflammation, MH=Mucosal hyperplasia, DYS=Dysplasia. Graphs represent data pooled from two independent experiments, and are plotted as mean±SEM. Statistical analysis was performed by a one-way ANOVA compared to DSS+vehicle followed by a Fisher's LSD test for multiple comparisons.
In the second experiment (Example 13B), mice were provided with drinking water containing 2.5% DSS for 7 days. On day 7 normal drinking water was restored and i.p. treatments of 50 nmole/kg of SG-11 (SEQ ID NO:7) (1.3 mg/kg), SG-11V5 (SEQ ID NO:19) (1.3 mg/kg), or Gly2-GLP2 (0.2 mg/kg) were initiated. Treatments were administered twice a day (b.i.d.), with a morning and evening dose (every 8 and 16 hours) for 4 days. For both the prophylactic and therapeutic models fresh 2.5% DSS water was prepared every 2 days during the DSS administration.
At the end of each DSS model study, mice were fasted for 4 hours and then orally gavaged with 600 mg/kg 4KDa dextran labeled with fluorescein isothiocyanate (FITC) [4KDa-FITC]. One hour after the 4KDa-FITC gavage mice were euthanized, blood was collected and FITC signal was measured in serum. […] Data in both graphs are plotted as mean±SEM and each figure represent data from an individual experiment (n=10 per group).
Upon completion of the DSS models above, LBP levels were measured as an inflammation centric readout of barrier function following the protocol detailed in Example 5. Upon completion of both DSS models (Examples 13A and 13B) blood was collected and serum was isolated. […]

| Molecule | LBP in serum (ELISA) | Colon length | Colon weight to length ratio | Body weight changes |
| --- | --- | --- | --- | --- |
| B1 | no reduction in LBP | significant increase in the colon length | significantly improved colon weight to length ratios | statistically improved body weight changes |
| B2 | no reduction in LBP | significant increase in the colon length | significantly improved colon weight to length ratios | statistically improved body weight changes |
